Test results taken from article PMC5454391, “Improving 10-deacetylbaccatin III-10-β-O-acetyltransferase catalytic fitness for Taxol production” (Nature Communications, 2017).
Numbering of substitutions follows the chain as printed. Numbers in names are those of the source.

B1: DBAT (recombinant DBAT of T. cuspidata) (Taxus cuspidata) (protein)
chain: MAGSTEFVVRSLERVMVAPSQPSPKAFLQLSTLDNLPGVRENIFNTLLVYNASDRVSVDPAKVIRQALSKVLVYYSPFAGRLRKKENGDLEVECTGEGALFVEAMADTDLSVLGDLDDYSPSLEQLLFCLPPDTDIEDIHPLVVQVTRFTCGGFVVGVSFCHGICDGLGAGQFLIAMGEMARGEIKPSSEPIWKRELLKPEDPLYRFQYYHFQLICPPSTFGKIVQGSLVITSETINCIKQCLREESKEFCSAFEVVSALAWIARTRALQIPHSENVKLIFAMDMRKLFNPPLSKGYYGNFVGTVCAMDNVKDLLSGSLLRVVRIIKKAKVSLNEHFTSTIVTPRSGSDESINYENIVGFGDRRRLGFDEVDFGWGHADNVSLVQHGLKDVSVVQSYFLFIRPPKNNPDGIKILSFMPPSIVKSFKFEMETMTNKYVTKP
B2: DBAT (recombinant DBAT of T. cuspidata) (Taxus cuspidata; F301V) (protein)
chain: B1 chain with F301V
B3: DBAT (recombinant DBAT of T. cuspidata) (Taxus cuspidata; G38R) (protein)
chain: B1 chain with G38R
B4: DBAT (recombinant DBAT of T. cuspidata) (Taxus cuspidata; F301V/G38R) (protein)
chain: B1 chain with G38R, F301V

substrate: [H][C@]12[C@H](OC(=O)c3ccccc3)[C@]3(O)C[C@H](OC(=O)[C@H](O)[C@@H](NC(=O)c4ccccc4)c4ccccc4)C(C)=C([C@@H](O)C(=O)[C@]1(C)[C@@H](O)C[C@@]1([H])OC[C@@]21OC(C)=O)C3(C)C; experiment: purified protein; settings: acetyl-CoA 2,000 μM (saturating), 50 mM sodium acetate pH 5.5, 37.5 °C, 180 min

For B1, the Km was 0.546 (±0.029) mM.
For B2, the Km was 0.178 (±0.017) mM.
B3 was tested, and the Km was 0.368 (±0.061) mM.
With B4 the Km was 0.424 (±0.133) mM.

First: B1
Second: B2
The Vmax of the first is lower: 0.204 µM/min for the first, 0.242 µM/min for the second.

First: B3
Second: B4
The Vmax of the first is lower: 0.499 µM/min for the first, 0.918 µM/min for the second.

B1 and B2 are within 1.5-fold of each other in kcat: 0.000334 s⁻¹ for the first, 0.000396 s⁻¹ for the second.

Going from B3 to B4, the kcat rises from 0.000815 s⁻¹ to 0.0015 s⁻¹ (1.8-fold).

Going from B1 to B2, the kcat/Km rises from 0.611 M⁻¹ s⁻¹ to 2.22 M⁻¹ s⁻¹ (3.6-fold).

First: B3
Second: B4
The kcat/Km of the first is 1.6-fold lower: 2.22 M⁻¹ s⁻¹ for the first, 3.54 M⁻¹ s⁻¹ for the second.
